Results taken from the nanobody polyreactivity screen of Harvey et al. (2022).

Assay: yeast display, Sf9 membrane polyspecificity reagent, FACS + sequencing; frameworks hold sequencing errors
Outline: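 A synthetic nanobody library was expressed on Saccharomyces cerevisiae BJ5465 by galactose induction for 36–48 hours. The library was stained for 1 hour at 4 °C with 10% biotinylated, detergent-solubilized Sf9 membrane reagent and enriched with streptavidin microbeads before FACS. Low and high (top ~1%) gates were set on anti-HA fluorescence for expression and streptavidin fluorescence for reagent binding, and each polyreactivity label reflects the gate of origin.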

Sequence | polyreactivity (PSR sort gate)
QVQLVESGGGVVQAGGSLRLSCAGSGFTFPSYAMGWYRQAPGKERELVAAISVGGGSTYYADSVKGRFTISRDKAKNTVYLQMNSLKPEDTAVYYCNADYWYWVWLVGGNVDLDYWGQGTQVTVSS | high polyreactivity
QVQLEESGGGLVQAGGSLRLSCAASGRTFSYNAMGWYRQPPGKEREFVAAITWRGSSTYYADSVKWRFTISRDYEKNTVYLQMNSLIPDDTAVYECNARATNVIWGRYDYWGQGTQVTVSS | high polyreactivity
QVQLVESVGGLVQAGGSLRLSCAASGSTFYENTMGWYRQAPGKERELVAAISFRGGSRYYADSVKGRFTISRDNAKNTVYLQMNSLKPEDTAVYYCNADDSPVPSIRFDYWGEGTQVTVSS | low polyreactivity
QVQLVESGGGLVQAGGSLSLSCAASGSTFSLNTKGWYRQAPRKERELVAAITSGGSTNYADSVKGRFTISRDNAKNTVYLQMNSLKPEDTAVYYCAATPGRGGGYNYWGQGSQVTVSS | low polyreactivity
QLQLVESGGGLVQAGGSLRLSCAASVFTFYVNAMGWYRQAPGKERELVAAISSSGTRTYYADSVKGRFTISRDNAKNTVYLKMNSMKPEDTAVYYCAARAYQHYKWGQGTQVTVSS | high polyreactivity
QVQLVESGGGLVQAGGSLRLSCAASRSIFAGNAMVWYRQSPGKERELVAGITFGDDSTYYADSVKGRFTISRDNAKNTVYLQMNSLKPEVTAVYYCATDLHPYNYYFYHYWVDAAYDYLGQGTQVTVSS | low polyreactivity
QVQLVESGGGLVQAGGSLPLSCAASGRIFNGYAMGGYIQAPGKERELVAAICWRGGRTYYADSVKGRFTISRDNAMNTVYLQRNSLKAEDTAVYYCNKDLPPQGQLRNMYYWGQGTIVTVSS | high polyreactivity
QVQLVESGAGLVQAGGSLRLSCAASRRIIYKYAMGWYSQAPGKERELVAAITSGGSTYYADSVKGRYTISRDNAKNTVDLQMNSLKPQDTAVYYCAASYARLSVWYDYWRQGTQVTVSS | high polyreactivity
QDQLVESGGGLVQAGGSLRLSCAASGSIFVIYAMGWYRPAPGKERQLVAAITTIGGRTYYADSVKGRFTISRDHAKNTVYLQMNSLKPEDTAVYYCAADIRSNRLYDGGYWGQGTQVTVSS | low polyreactivity
QVQLVESGGGLVQAGGSLRLSCAASGSIIKWYAMGWYRQAPGKERELVAAISASGGSTYYADSVKGRFTISRDNAKHTVYLQMNSLKPEDTAVYYCNTDHYYSSRHYDYWGQGTQVTVSS | low polyreactivity
QVQLVESGGGLVQAGGSLRLSCAASGIIFGRYAMGWYRQAPGKERELVAAITRGGSTKYADSVKGRFTISRDNAKNTVYLQMNSLKPEDTAVYYCARVRRYPLRYNYWGQGTQVTVSS | high polyreactivity
QVQLEESGGGLVQAGGSLRLSCAASGSTFPGNALGWYRQAPGKERELVAAITSSGGSTDYADSVKGRFTISRDNAKNTVYLQMNSLKPEDTAVYYCAADGEDSLWTGYDYDYWGQGTQVTVSS | low polyreactivity
QVQLVESGGGLVQAGGSLRLTCAASGSTFGVYAMGWYRQAPRKDRELFAAISSSTGSTYYADSVKGRFTISRHKAKNTVYLQRNSLKPEDTAVYYRAAAGYGKVRGDYWGQGTQVTVSS | low polyreactivity
QVQLVESGGGLVQAGGSLRLSCAASGFIFYYYTMVWYRQAPGKERELVAAIRTGGGTNYADSVKGRFTISRDNAKNTVYLQRNSLKPEDTAVYYCAKGRQGVSYLTGTYGGRDYWGQGTQVTVSS | low polyreactivity
QVQLVESGGGLVQAGGSLRLSCAASGSIFPVYAMGWYRQAPGKERELVAAISWGGGNTYYADSVKGRFTISRDNSKNTVYLQMNSLKPEDTAVYYCNKRSRLGRGNRDYRGQGTQVTVSS | high polyreactivity
QVQLVESGGRLVQAGGSLRLSCASSGRTFYPYVMGWYRQAPGKERELVAAISSGTSTYYADSVKGRFTISRDNAKNTVYLQMNSLKPEDTAVYYCAVRVYTYVLYDFWGQGTQVTVSS | high polyreactivity
QVQLVESGGRLVQAGGSLRLSCAASGIIFVSYMGWYIQAPGQERELVAAIRWSGGRTYYADSVKGRFTISRDNAKNTVYLQMTSLKPEDTAVYNCATAPYICAYSLPHHDSWGQGTQVTVSS | high polyreactivity
QVQLVESGGGLVQAGGSLRLSCAASGRIFYNVMGWYRQAPGKERELVAAISSSGGRTYYADSVKGRFTISRDNAKNTVYLQMNSLKPEDTAVYYCAARAWYYGYWGQGTQVTVSS | high polyreactivity
QVQLVESGGGLVQAGGSLRLSCAASGSIFRFKAMGWYRQAPGKERELVAAITSSGGSTYYADSVKGRFTISRDNAKNTVYLQMNSLKPEDTAVYYCAAGARRVGRYYWGQGTQVTVSS | high polyreactivity
QVQLVESGGGLVHAGGSLRLSCAASGSTFGINAMGWYRQAPGKERELVAAITRGGSTKYADSVKGRFTISRDNAKKTVYLQMNSLKPEDTAVYYCNKRPWHRSSRPFYYWGQGTQVTVSS | high polyreactivity
QVQLVESGGGLVQAGGSLRLSCAASGSILSGYAMGWYRQAPGKERELVAAISWSGGSTYYADSVKGRFTISRDNAKNTVYLQMNSLKPEDTAVYYCAAASVPWGGYYWGQGTQVTVSS | low polyreactivity

Sequence | polyreactivity (PSR sort gate)
QVQLLESGGGLVQAGGSLRLSCAASGSTFDYKSMGWYRQAPGKERELVATINDSGGNTYYADSVKGRFTISRDNAKNTVYLQMNSLKPEDTAVYYCATVGYLYTPVVVTWWDWGDYWGQGTQVTVSS | low polyreactivity
QVQLQESGGGLVQAGGSLRLSCAASGSISRLDYMGWYRQPSGKERELVAAIDNGSTTYYADSVKGRLTISRDNAKYTVYLQMNSLKPEDTAVYFCAAVRGRGGTHAYWGQGTQVTVSG | low polyreactivity
QVQLQEGGGGLVQAGGSLRLSCAASGYISYGDVMGWYRQAPGEERELVASIGLDATTNYADSVKGRFTISRDNAKITVYVQMNSLKPEDTAVYYCAADVGSGVLCGYWGQGTQMTVSS | high polyreactivity
QVQHVESGGGLVQEGGSLRLSCAASARTFPFYAMGWYRQATGKERELVAAITRSDDSPYYADSVKGRFTFSRDNAKNTVYVQMHSLKPEDIAVYYCAADVEGLTVESHVYRVGFDYCGQGTQVTVSS | low polyreactivity
QVQLVESGGGLVQAGGSLRLSCAASGFTIGRYDMGWYRQAPGKERELVAAISWSGGSTYYADSVKGRFTISRDNAKNTVYLQMNSLKPEDTAVYYCNAAYYGYENLSKRGYWGQGTQVTVSS | high polyreactivity
QVQLVESGGGLVQAGGSLRLSSAASGRIFRWYAMGWYRQAPGKERELVATISSTGGSTYYADSVKGRFTISRDNAKNTVYLQMNSLKPEDTAVYYSNAVVYGIFLYAWYDYWGQGTQVTVSS | low polyreactivity
QVQLVESGGGLVQAGGSLRLRCAASGGTFGVNAMGWYRQAPGKERELVAAISSSGGRTYYADSVKGRFTISRDNAKNTVYLQMNSLKPEDTAVYYCAARNYFWGQGTQVTVSS | low polyreactivity
QVQLVESGGGLVQAGGSLRLSCAASGSIFDRNAMGWYRQAPGKERELVAAITSGGSTYYADSVKGRFTISRDNAKNTVYLQMNSLKPEDTGVYYCNADADPPVPLYYWGQGTQVTVSS | low polyreactivity
QVQLVESGGGLVQAGGSLRLSCGASGSTFAINAMGWYRQAPGKERELVAAINWSGTTTYYADSVKGRFTISRDNAKNTVYLQMNSLKPEDTAVYYCNARYYVLRGYDYWGQGTQVTVSS | low polyreactivity
QVQLVESGGGLVQAGGSLRLRCAASGSIFWRNAMGWYRQAPGKERELVAPISGNGGTTYYADSVKGRFTISRENAKNTVFLQMNSLKPEHTAVYYCPKVGKTYRTYEYWGQGTEVTVSS | high polyreactivity
QVQLVESGGGLVQAGGSLRLSCAASGRTIASYAMGWYRQAPGKERELVAAITSGGSTYYADSVKGRFTISRDNAKNTVYLQMNSLKPEDTAVYYCAAYVRPAYYAIHVDYWGQGTQVTVSS | low polyreactivity
QVQLVESGGGLVQAGGSLRLSCAASGSTFGFYAMGWYRQAPGTERELVAVISSGDSPYYADSVKGRFTISRDNAKNTVYLKMNSRKPEDTAVYYCAKDALVIDGGGGYDYWGQGTQVTVSS | low polyreactivity
QVQLVESGGGLVQAGGSLRLSCAASGFTFPHYAMGWYRQAPGKERELVAAISWSGGNTYYADSVKGRFTISRDNAKNTVYLQMNSLKPEDTAVYYCAKGYSSHYWWAYDSWGQVTQVTVSS | high polyreactivity
QDQLVESVGGLDQAGGSLRLSCAASGFIFGANAIGWYRQATGKEREMVAAISSSGGRYELRRSVKGRFTISRDNAKNTVYLQMNSLKPEDTAVYYCATPYPTGRPRHYSWGQGTQVTVSS | high polyreactivity
QVQLVESGGGLVQAGGSLRLSCAASGFTFHKNAMGWYRQAPGKERELVAGISRRAGSTYYADSVKGRFTISRDNAKNTVYLQMNSLKPEDTAVYYCATDRARTGALYYWGQGTQVTVSS | high polyreactivity
QVQLVESGGGLVQAGGSLRLSCAASGRTFADYGMGWYRQAPGKERELVAAITSSGGSTYYADSVKGRFTISRDNAKNTVYLQMNSLKPEDTAVYYCAAQQSPSVDYWGQGTQVTVTS | low polyreactivity
QVQLVESWGGLVQAGGSLPLSCAASGFTFVSYAMGWSRQAPGKERELVAAISKRGGSTSYADSVKGRFTISRDNAKNTVYLQMNSLKPEDTAVYYCYKRSYAWSPHVDYWGQGTQVTVSS | high polyreactivity
QVQLQESGGGLVRAGGSLRLSCAASGYISTSIAMGWYRQAPGKERELVASFGGGAITNYADSVKGFTISRDNGKNSVYLQMNSLKPEDTAVYYCAVYHGDRGYYSYWGQGTQVTVSS | low polyreactivity
QVQLVESGGGLVQAGGSLRISCAASGFTFRYNAMGWYRQAPVKERELVATISSRGGSTNYADSVKGRFTISRDNAKNTVYLLMNSLKPEDTAVYYCNNVRYRDLKRYDYWGQGTQVTVSS | high polyreactivity
QVQLVESGGGLVQAGGSLRLSCAASGRTFDTNAMGWYRQAPGKERELVAAISWSAGRTYYADSVKGRFTISRDNAKNTVYLQMNSLKPEDTAVYYCAARPPFIAYSWQKQGYYWGQGTQVTVSS | low polyreactivity
